Test results published in patent publication US20260028390A1, “ALPHA1-ANTITRYPSIN FOR USE IN THE TREATMENT OF DISEASES OR DISORDERS OF THE NERVOUS SYSTEM SUCH AS CHRONIC INFLAMMATORY DEMYELINATING POLYNEUROPATHY” (Ageronix SA, priority 2022, published 2026).

How the values were obtained:
[1] = target: T1, Recombinant Human TACE/ADAM17 (Homo sapiens, UniProt P78536); test: Cell free TACE/ADAM17 activity; type: biochemical
T1 construct: purchased R&D Systems 930-ADB-010
Method: TACE activity and its inhibition by human AAT (AAT) was performed with Recombinant Human TACE/ADAM17 kit (930-ADB and ES003, R&D Systems) in black 96-well immuno plates (437111, ThermoFisher Scientific). The enzymatic activity of TACE/ADAM17 was measured by mixing 0.005 μg of rhTACE with 10 μM of Mca-PLAQAV-Dpa-RSSSR-NH2 fluorogenic peptide substrate III in assay buffer (25 mM Tris, 2.5 μM ZnCl2, 0.005% Brij-35 (w/v), pH 9.0) to a final volume of 100 μl. AAT (Sigma Aldrich, batch A6150) was resuspended in water (vehicle), control TACE/ADAM17 activity was assessed in presence of the vehicle (amount used for AAT 100 μM). AAT was added at different concentration (0, 6.25, 12.5, 25, 50 and 100 μM) to assess its dose-dependent inhibition of TACE/ADAM17. All conditions were performed in triplicates. Activity was measured as relative fluorescent unit (RFU) in a kinetic mode (9 time points over 5 min) with a SpectraMax iD3 Microplate Reader (low PMT gain, is exposition, top read at 1 mm, wavelength: excitation 320 nm, emission 405 nm). Bar graph as percentage of control activity was obtained by averaging the values obtained over the 5 min for each of the condition.
TACE activity is assessed according to the manufacturer's instruction (Recombinant Human TACE/ADAM17 kit, 930-ADB, R&D Systems) in kinetic mode, without or with different AAT concentration. All conditions were done in triplicates and are shown as mean±SD (FIGS. 5A, 5B and 5C).
ADAM-17 activity and its inhibition by human peptide 8 was measured with Recombinant Human ADAM-17 kit (Recombinant Human TACE/ADAM17 Protein, CF: 930-ADB-010 and Mca-PLAQAV-Dpa-RSSSR-NH2 Fluorogenic Peptide Substrate:ES003; R&D Systems) in black 96-well immunoplates (437111; Thermo Fisher Scientific). The enzymatic activity of ADAM-17 was measured by mixing 0.005 μg of rhADAM-17 with 10 μM of Mca-PLAQAV-Dpa-RSSSR-NH2 fluorogenic peptide substrate III in assay buffer (25 mM Tris, 2.5 μM ZnCl2, 0.005% Brij-35 (w/v), pH 9.0) to a final volume of 100 μL. Peptide 8 (Syngene) was dissolved in DMSO and diluted to the desired concentration in assay buffer. Control ADAM-17 activity was assessed in the presence of the assay buffer. […] All conditions were performed in triplicate. Activity was measured as relative fluorescent units (RFU) in endpoint mode (5 min) with a SpectraMax iD3 Microplate Reader (automatic PMT gain, wavelengths: excitation 320 nm, emission 405 nm).

[2] = target: Recombinant Human TACE/ADAM17 Protein (R&D Systems 930-ADB) (human) (UniProt P78536); test: cell-based or functional assay
Recombinant Human TACE/ADAM17 Protein (R&D Systems 930-ADB) (human), sequence (P78536 215-671 limits assumed): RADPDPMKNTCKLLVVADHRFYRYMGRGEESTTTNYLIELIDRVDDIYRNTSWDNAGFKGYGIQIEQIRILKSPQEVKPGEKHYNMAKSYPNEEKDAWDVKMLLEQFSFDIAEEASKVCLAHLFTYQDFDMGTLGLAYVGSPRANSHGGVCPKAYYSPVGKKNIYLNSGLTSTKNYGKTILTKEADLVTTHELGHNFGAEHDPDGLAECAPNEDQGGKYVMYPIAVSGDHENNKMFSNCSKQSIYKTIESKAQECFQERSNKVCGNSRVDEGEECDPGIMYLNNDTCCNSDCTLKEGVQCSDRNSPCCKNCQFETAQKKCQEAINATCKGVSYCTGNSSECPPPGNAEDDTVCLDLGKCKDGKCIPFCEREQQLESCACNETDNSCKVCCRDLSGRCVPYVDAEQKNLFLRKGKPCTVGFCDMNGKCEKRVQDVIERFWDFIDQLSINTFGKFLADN

T1 sequence (P78536 215-671 limits assumed): as above

| inhibition of ADAM17 activity ([1]; peptide 8 at concentration of 100 (μM), experiment 2) | inhibition of ADAM17 activity ([1]; peptide 8 at concentration of 200 (μM), experiment 2) | inhibition of ADAM17 activity ([1]; peptide 8 at concentrations up to 50 μM, vs DMSO) | IC50 of inhibition of TACE activity, cell-free fluorogenic peptide substrate assay [2] | Substance |
| --- | --- | --- | --- | --- |
| 36% | 65% | No significant inhibition |  | Ac-YRAHQGE-NH2 [Peptide 8, AAT-related peptide derived from immunoregulatory sites on the surface of AAT] |
|  |  |  | 15.3 µM | human alpha1-antitrypsin (AAT) (Sigma Aldrich, batch A6150) (from UniProt P01009 25-418) |
